Laboratory results from patent US20070072210.

Tested on: T1, His-tagged full length BAAT1 (baculovirus, produced in Sf9 cells)
T1 sequence: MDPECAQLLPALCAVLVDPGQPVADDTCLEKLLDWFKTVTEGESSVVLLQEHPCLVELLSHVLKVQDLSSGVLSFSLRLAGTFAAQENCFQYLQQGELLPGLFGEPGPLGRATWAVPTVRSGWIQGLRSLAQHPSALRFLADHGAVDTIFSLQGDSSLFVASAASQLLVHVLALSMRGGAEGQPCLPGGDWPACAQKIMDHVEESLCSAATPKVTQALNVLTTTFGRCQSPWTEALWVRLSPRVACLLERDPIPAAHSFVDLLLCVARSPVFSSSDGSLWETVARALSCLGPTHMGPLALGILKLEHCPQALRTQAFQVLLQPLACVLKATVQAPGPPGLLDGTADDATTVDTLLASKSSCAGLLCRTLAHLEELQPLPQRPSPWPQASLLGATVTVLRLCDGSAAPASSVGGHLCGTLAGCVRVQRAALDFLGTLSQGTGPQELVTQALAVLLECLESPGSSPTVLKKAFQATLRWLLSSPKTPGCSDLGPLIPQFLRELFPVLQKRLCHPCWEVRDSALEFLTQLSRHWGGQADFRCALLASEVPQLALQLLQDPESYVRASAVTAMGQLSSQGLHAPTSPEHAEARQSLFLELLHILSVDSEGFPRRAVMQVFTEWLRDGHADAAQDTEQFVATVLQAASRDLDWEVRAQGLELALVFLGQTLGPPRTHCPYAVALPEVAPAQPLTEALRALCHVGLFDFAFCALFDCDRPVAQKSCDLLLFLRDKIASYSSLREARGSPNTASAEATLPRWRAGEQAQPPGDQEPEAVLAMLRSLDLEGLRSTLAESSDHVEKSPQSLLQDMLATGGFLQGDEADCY

ataxia telangiectasia mutated (endogenous, from human cell lysates)
in vitro PP2A phosphatase assay on immunoprecipitated ATM, Ser1981 phosphorylation by immunoblot: dephosphorylation of ATM Ser1981 was partially blocked in the presence of full length, baculovirus produced BAAT1
